# Measured values as given in the nanobody polyreactivity screen of Harvey et al. (2022).
# Experiment: yeast display, Sf9 membrane polyspecificity reagent, FACS + sequencing; frameworks hold sequencing errors
# Procedure, shortened: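 Using colony PCR, genes from sorted yeast display clones were amplified, then sequenced on MiSeq at 2 × 250 and filtered by CDR length. The clones had been stained with 10% biotinylated, detergent-solubilized Sf9 membrane reagent for 1 hour at 4 °C and sorted by FACS into low and high (top ~1%) gates on anti-HA and streptavidin fluorescence. Polyreactivity labels come from the gate of origin.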
sequence,measurement,value
QVQLVESGGGLVQAGGSLRLSCAASGRTFVTNAMGWYRQAPGKERELVAAISSSGGSTYYADSVKGRFTISRDNAKNTVYLQMNSLKPEDTAVYYCAVGGQTKGQYDYWGQVTQVTVSS,polyreactivity (PSR sort gate),low polyreactivity
QVQHVESAGGLVQEGGSLRLSCAASGSTSVKYPMGWYRQAPGKERELVAAIRKRGDSTYYADSVKGRFTISRDNAKNTVYLQMNSLKPEDTAVYYCAAQYLRGRGYWGQGTQVTVSS,polyreactivity (PSR sort gate),low polyreactivity
QVQLVESGGGLVQAGGSLRLSCAASGYTFPVYAKGWYRQASRKERELVATSTSGGSTNYADSVKGRFTISRDNAKNTVYFQMNSLKPEDTAVYYCAADRALSISLYPIASFYYWGQGTQVTVSS,polyreactivity (PSR sort gate),low polyreactivity
QVQLVESGGGLFQAGGRLRLSCAASGRIFWLYAMGWYRQAPGKERELVAAITGIGGSTYYADSVKGRFTISRDNAKNTVYLQMNSLKPEDTAVYYCAARSPATYPSMGYWGQGTQGTVSS,polyreactivity (PSR sort gate),low polyreactivity
QDQLVESGGGLVQAGGSLRLSCAASGRIFPYNAMGWYRQAPGKERELVAGISRTGGSTYYADSVKGRFTISRDNAKNTVYLQMNSLKPEDTAVYYCAARPGAHPDRLDYWGQGTQVTVSS,polyreactivity (PSR sort gate),low polyreactivity
QVQLVESGGGLDQAGGSLRLSCAASGSTFGWYAMGWYIQAPGTERELVAAINSSGGTTYYADSVKGLFTISRDNAMNTVYLQMNSLKPEDTAVHYCAARQVYSVGKDTRSVGYWGQGTQVTGSS,polyreactivity (PSR sort gate),low polyreactivity
QVQLVESGGGLVQAGGSLRLSCAASGSIFQWYAMGWYRQAPGKERELVAAISWDGDSTYYADSVKGRFTISRDNAKNTVYLQMNSMNPEDTAVYYCAADYEWEYEYWGQGTQVTVSS,polyreactivity (PSR sort gate),high polyreactivity
QVQLVESGVGLVQAGGSLRLSCAASGSIFSPNAMVWSRQAPGKERELVAAITWSGDSTYYADSVKGRFTISRDNAKNTVYLQINSLKREDTEVYYCAADFTYQGSSANDYWGQGSQVTVSS,polyreactivity (PSR sort gate),low polyreactivity
QVQLVESGGGLVQAGGSLRLSCAASGFTFVAYAMGWYRQAPGKERELVAALRRTGGSSSYADSVKGRFTISRDIAKNTVYLQMNRLKPEDTSVYYCNKVRLISGVYWSYQAFGYWGQGTQVTVSS,polyreactivity (PSR sort gate),high polyreactivity
QVQLVESGGGLVQAGGSLRLSCAASGIIIDYYTMGWYRQAPGKERELVAAINKSGGSTYADSVKGRFTISRDNAKNTVYLQMKSLKPEDTAVYYCAAEVDYSDWPEYARKYYYWGQGTQVTVSS,polyreactivity (PSR sort gate),low polyreactivity
QVQLVESGGGLVQAGGSLRLSCAASGGIFGTYTMGGYRQSPGKEREFVAAIRSSSGRTYYADSVKGRFTISRDNAKNTVYLQMNSLKPEVTAVYYCNAKYYGYRVGKYYPFGYWGQGTQVTVSS,polyreactivity (PSR sort gate),high polyreactivity
QVQLVESGGGLVQAGGSLRLSCASSGFTFFRNAMGWYRQAPGKERELVAAISGSGGRTYYADSVKGRFTISRDNAKNTVYLQMNSLKLEDTAVYYCAAVPVDPGYDYWGQVTQVTVSS,polyreactivity (PSR sort gate),high polyreactivity
QVQLVESGGGLVQAGGSLRLSCAASGSIIILYAMGWYRQAPGKERELVAAISLRGGRTYYADSVKGRFTISRDNAKNTVYLQMNSLKPEVTSVYYCATPVTNGFDYWGQGTQVTVSS,polyreactivity (PSR sort gate),high polyreactivity
QVQLVESGGGLVQAGGSLRLSCAASGRTFRGNAMGWYRQAPGKERELVAAISRRGVSTYYADSVKGRFTISRDNAKNTVYLQMNSLKPEDTAVYYCNADTSYQRVGGNYWGQGTQVTVSS,polyreactivity (PSR sort gate),high polyreactivity
QVQLVESGGGLVQAGGSLRLSCAPSGSIVNRYALGWYRQAPGKEREFVAAITRRGGYTYYADSVKGRFTISRDNAKNSVYLPLNSLKPEDTAVYYCAAPFYYPAGLLYYENNYWRQGTQVTVSS,polyreactivity (PSR sort gate),high polyreactivity
QVQLVESGGGLVQAGGSLRLSCAASGSTFKVYAMGWYRQAPGKERELVATISKSGSTYADSVKGRFTISRDNAKNTVYLQMNSLKPEDTAVYYCAADLYTYPRTRRRAYGYWGQGTQVTVSS,polyreactivity (PSR sort gate),high polyreactivity
QVQLVESGGGLVQAGGSLRLSCAASGSIFSIYAMGWYRQAPGKERELVAAIDSGTSTTYADSVKGRFTISRDNAKNTVYLQMKSLKPEDTAVYYCAAALYSDVAAVATYGYYWGQGTQVTVSS,polyreactivity (PSR sort gate),low polyreactivity
QVQLQESGGGLVQAGGSLRLRCAASGYISAGRQMGWYRQGPGKEREFVATINGGATTNYADSVKGRFTISRDNAKNSVYLQMNSLKPEDTAVYYCAVRTYIYDIHRYWGQGTQVTVSS,polyreactivity (PSR sort gate),high polyreactivity
QVQIVESGGGLVQAGGSLRLSCAASGRIRSYAMGWYRQAPGKERELVAAISSRGGSTYYADSVKGRFTISRDNAKNTVYLLMNSLKPEDTAVYYCAKGGYCGQGTQVTVSS,polyreactivity (PSR sort gate),high polyreactivity
QVQIVESVGRLVQAGCSLRLSCDASGRIFGTNAKGWYSQAPGKDRELFAAINGSDSSTYYADSVKGRFTISRDNAKNSDYLQMNSLKPEDNAVYYCNADWSRAPERSTYGYDYWGHGTQVTVSS,polyreactivity (PSR sort gate),low polyreactivity
QVQLVESGGGLVQAGGSLRLSCAASGFIFYPYAMGWYRQAPGKERELVASIYSGGRTYYADSVKGRFTISRDNAKHTVYLQMNSLKPEDTAVYYCNARSRYFGYDYWGQGTQVTVSS,polyreactivity (PSR sort gate),high polyreactivity
QVQLVESGGRLVQAGGSLRLSCAASGSIFIPNAMGWYRQAPGKERELVAAITVSGGITYYADSVKGRFTISRDNAKNSVYLQMNSLKPEDTAVYYCAADFTIYYILEYDYWGQGTQVTVSS,polyreactivity (PSR sort gate),low polyreactivity
QVQLVESGGGLVQAGGSLRLSCAASGFIFWVNAMGWYRQAPGKERELVAAISQSGGTTYYADSVKGRFTISRDNAKNTVYFQMNSLKPEDTAVYYCNALWRGHGRYNYWGQGTQVTVSS,polyreactivity (PSR sort gate),low polyreactivity
QVQLVESRGGLVQAGGSHRLSCADAGYSNIANAMGSDRQAPGKERELVAAISIGGNTKYADSVKGRFTISRDNAKNTVYLQMNSLKPEDTAVYYCAVEDQYYSVSLGGEYDYWGQGTQVTVSS,polyreactivity (PSR sort gate),high polyreactivity
QVQLVESGGGLVQAGGSLRLSCAASGSTFYGNAMGWYRQAPGKERELVAAITWGDASTYYADSVKGRFTISRDNAKNTDYLQMNSLKPEDTAVYYCAVDESYGSSSDMDYWGQGTQVTVSS,polyreactivity (PSR sort gate),low polyreactivity
QVQLVESGGGLVQAGGSLRLSCAASGSTFAGNAMGWYRHAPGKERELVAAIDSSTGSTYYADSVKGRFTISLDNAKNTVYLQMNSLKPEDTAVYYCNKTSFLVKLDFWGQGTQVTVSS,polyreactivity (PSR sort gate),low polyreactivity
QVQLVESGGGLVQAGGSLRLSCAASGSIFRPNVMGWYRQAPGKERELVAAITGSGGSTYYADSVKGRFTISRDNAKNTVYLQMNSLKPEDTAVYYCNARTVSRGRYTYDYWGQGTQVTVSS,polyreactivity (PSR sort gate),low polyreactivity
QVQLVESGGGLVQAGGSLRLSCAASGRTFRSYAMGWYRQAPGKERELVAAISRGGRTNYADSVKGRFTISRDNAKNTVYLQMNSLKPEDTAVYYCAARLPYLGGYDYWGQGTQVTVSS,polyreactivity (PSR sort gate),high polyreactivity
QFQLVESGGGLVQAGGSLRLTCAASGNIFADYAMGWYRQAPGKERELVAAISRGGITSYADSVKGRFTISRDNAKNTVYLQMNSRKPEDTAVYYCATVRYDVYDSLGFGYWGQGTQVTVSS,polyreactivity (PSR sort gate),low polyreactivity
QVQLVESGGGLVQAGGSLRLSCAASGFTFHYYAMGRYRQAPGKERELVAAISWDTGSTYYADSVKGRFTISRDNAKNTVYLQMNSLKPEDTAVYYCNAQFYWYHGEWVFYGLSDDFDYWGQGTQVTVSS,polyreactivity (PSR sort gate),high polyreactivity
QVQLVESGGGLVQAGGSHRLSCAASGITFRWYTMGWYRQAPGKERELVAAITGSGCTTYYADSVKGRFTISRDNAKNNVYLQMYSLKPEDSAVYYCAAEFYGLVYVPPYDYWGQGTQVTVSS,polyreactivity (PSR sort gate),high polyreactivity
QLQLVESGGGLVQAGGSLRLSCAASGSTFGSNAMGWYRQAPGKERELVAAISTSSGSTYYAVSVKGRFTISRDNAMNTVYLQMNSMKPEDTAVYYCNADRHYVPYYSRPRYIPYDYWGQGTQVTVSS,polyreactivity (PSR sort gate),high polyreactivity
QVQLVESGGGLVQAGGSLRLSCAASGSIFGLYAMGCYRQAPGKERELVAAITWSSGNTYYADSVKGRFTISRDNAKNTVYLQMNSLKPEDTAVYYCAAEQIYFVYWEDDYWGQGTQVTVSS,polyreactivity (PSR sort gate),high polyreactivity
QVQLVESGGGLVQAGGSLRLSCAASGSTFNWNAMGWYRQAPGTERELVAAISKSGGTTYYADSVKGRFTISRDNAKNTVYFQMNSLKPEDTAVYYCAAVRRYHSYPDGGYWGQGTQVTVSS,polyreactivity (PSR sort gate),high polyreactivity
QVQLVESGGGLVQAGGSLRLSCAASGRIFSSYAMGWYRQAPGKERELVAGITRGGSTYADSVKGRFTISRDNAKNTVYLQMNSLKPEDTAVYYCAADALIATPSWGKYNYWGQGTQVTVSS,polyreactivity (PSR sort gate),high polyreactivity
QVQLVESGGALVQAGGSLRLSCAASGSTFYYYAMGWYRQAPGKEREFVAAISGGDGTTSYADSVKGRFTISRDNAKKTVYLQMNSLKPEDTAFYYCASPYTSYLYGYDYWGQGTQVTVSS,polyreactivity (PSR sort gate),low polyreactivity
QDQLVESGGGLVQAGGSLRLSCAASGFTFYSYAMGWYRQAPGKERELVAAISYRGGSTYYADSVKGRFTISRDNAKNTVYFQMNSLKPEDTAVYYCAARSPSAAYGSYGVYYWGQGTQVTVSS,polyreactivity (PSR sort gate),high polyreactivity
QVQLVESGGGLVQAGGSLRLSCAASGIIFEPYAMGWYRQAPGKERELVASIRWSDGSTFYADSVKGRFTISRDNAKNTVYLQMNSLKPEDTAVYYCNAVYEHRRVGWVTIDYGYWGQGSQVTVSS,polyreactivity (PSR sort gate),low polyreactivity
QVQLVESGGGLVQAGGSLRLSCAASGRIFPGYDMGWYRQAPGKERELVAAISASGGSTYYADSVKGRFTISRDNAKNTVYLQMNSLKPEDTAVYYCNAVYRLIRFDYWGQGTQVTVSS,polyreactivity (PSR sort gate),high polyreactivity
QVQLVESGGGLVQAGGSLRLSCAASGLTFKKYAMGWYRQAPGKERELVAAISRGGSTNYADSVKGRFTISRDNAKNTVYLQMNSLKPDDTAVYYCAAEGYWHVYADYYLEDYYWGQGTQVTVSS,polyreactivity (PSR sort gate),high polyreactivity
QVQLVESGGGLVQAGGSLRLSCAASGGIYYYAMGWYRQAPGKERELVAAISSGGGNTNYADSVKGRFTLSRDNAKNTVYLQMNSLKPEDTAVYYCATDGFIPTYSYTEIGYDYWGQGTQVTVSS,polyreactivity (PSR sort gate),low polyreactivity
QVQLVESGGGLGQAGGSLRLSCPASGITFVYYAMGWYRQSPGKERELVATITKSGVSTYYADSVKGRFTISRDNAKYTVYLQMNSLKPEDTAVYYCAKDVSYRFYWTYDYWGQGTQVTVSS,polyreactivity (PSR sort gate),low polyreactivity
QVQLVESGGGLVQAGGSLRLSCAASGITFYRNAMGWYRQAPGKEMELVAAITWNGGRTYYADSVKGRFTISRDNAKNTVYLQMNSLKPEDTAVYYCAADSGTRNLASYRYYYWGQATQVTVSS,polyreactivity (PSR sort gate),low polyreactivity
